The target in this experiment is T1, IL-17RB-3-Fc fusion protein (human).
T1 construct: Used as 5x concentrated conditioned medium; also called huIL-17RB-3 like-Fc; HIL17RB-3-Fc
The experiment in a line: restates the competition assay of Example 8. The procedure: The conditioned media from 293E cells transfected to express IL-17E-Fc fusion protein (SEQ ID NO: 23), prepared as described in Example 7 above, was collected, concentrated and used for the binding assay. Specificity of ligand binding was determined by competition with soluble blocking receptors, either IL-17RB-2-Fc or IL-17RB-3-Fc fusion proteins (SEQ ID NOS: 22 or 23, respectively). IL-17R-Fc fusion protein (consisting of the extracellular domain of SEQ ID NO: 3) was purified from conditioned media collected from transfected 293E cells and used as a control. Conditioned media from 293E cells transfected with IL-17RB-2-Fc or IL-17-RB-3-Fc (deposited with the ATCC on Mar. 14, 2001 under Accession Nos. and respectively), as described in Example 6 above, was concentrated (5×) with an Amicon 3Kd cut-off Centracon (#4203) and used for blocking.
Prior to the binding assay, 0.5 ml of IL-17E-Fc fusion protein containing (1×) conditioned media was added into vials each containing 0.5 ml 5× conditioned media of IL-17RB-2-Fc, IL-17RB-3-Fc, or 0.5 ml of 5 μg/ml IL-17R-Fc protein in RPMI 1640. Each vial was incubated on ice for 2 hours.
Subsequently, GM3104A cells (1×10⁶ cells per sample) were incubated with 1 ml of 8% FBS/PBS, at 4° C. for 1 hour. […]

The values below come from US20050234221A1 (Amgen, published 2005).

B1: recombinant human IL-17E-Fc fusion protein (Fc fusion)
chain: YSHWPSCCPSKGQDTSEELLRWSTVPVPPLEPARPNRHPESCRASEDGPLNSRAISPWRYELDRDLNRLPQDLYHARCLCPHCVSLQTGSHMDPRGNSELLYHNQTVFYRRPCHGEKGTHKGYCLERRLYRVSLACVCVRPRVMGEPKSADKTHTCPPCPAPELLGGPSVFLFPPKPKDTLMISRTPEVTCVVVDVSHEDPEVKFNWYVDGVEVHNAKTKPREEQYNSTYRVVSVLTVLHQDWLNGKEYKCKVSNKALPAPIEKTISKAKGQPREPQVYTLPPSRDELTKNQVSLTCLVKGFYPSDDIAVEWESNGQPENNYKTTPPVLDSDGSFFLYSKLTVDKSRWQQGNVFSCSVMHEALHNHYTQKSLSLSPGK
notes: Used as conditioned medium of transfected 293E cells; also called IL-17 like-Fc; rhIL-17 like-Fc
Consider B1, for which the binding result is given as “binds”.
